{
  "source": "IntAct's records for PubMed 18959476",
  "target": "mthK, O27564-2",
  "data": [
    {"substance": "Calcium-gated potassium channel MthK (Methanobacterium thermoautotrophicum) (from UniProt O27564-1) L3D", "values": [
      {"measurement": "effect of a mutation on the interaction", "value": "disrupting interaction"}
    ]}
  ]
}
